Laboratory results published in paper PMC6550519, “Regulatory Mechanism of Nicotine Degradation in Pseudomonas putida” (mBio, 2019).

Experiments:
[1] = test system: NicR2 (Pseudomonas putida S16); assay: ITC; conditions: EMSA: 10 mM Tris-HCl, 100 mM NaCl, 27 nM DNA, 180 nM NicR2, 30 min room temperature, 9% native PAGE; ITC: PBS, 64 uM NicR2 in cell, 100 uM DNA titrant …
[2] = target: NicR2; assay: ITC, […] HSP titrated into […] purified free NicR2; supported by EMSA; assay type: binding, Pseudomonas putida

Molecule | Kd [1] | Kd [2]
CACTAATTATACCGTCGTACATAGAATAAA (double strand) [R-m3 30 bp] | 1800 nM | 
CACTAATTATACCGTCGTACATCTAATAAA (double strand) [R-m4 30 bp] | 570 nM | 
CACTAATTATACCGTCGTACATATAATAAA (double strand) [wild type 30 bp (Pspm inverted repeat)] | 180 nM | 
O=C(O)CCC(=O)c1ccc(O)nc1 [HSP, 6-hydroxy-3-succinoyl-pyridine] |  | 4950 ± 480 nM
CACTAATTATACCGTCGTACATATCCTAAA (double strand) [R-m12 30 bp] | 140 nM | 
